Test results from patent US20170002081A1 (TRANSGENE S A, published 2017).

Legend:
[1] = molecular target: T1, vascular endothelial growth factor receptor (VEGFR)2-Fc-6×his (R&D Systems cat. 357-KD/CF) (human, UniProt P35968 20-764, limits assumed); test: ELISA, 300 ng coated receptor per well
T1 construct: extracellular domain; Bought; also called soluble VEGFR-2
Protocol: (§1) 13382) was also incubated with wells coated with receptor-human Fc fusion proteins Flt-3-Fc-, PDGFRβ-Fc, VEGFR2-Fc, VEGFR1-Fc, while PDGFRα- and SCFR-coated wells were incubated with respectively anti-PDGF-Rα (mouse IgG1, R&Dsystems cat. MAB322) and anti-SCF-R goat IgG (R&DSystems cat. AF332). […] Following revelation with tetramethylbenzidine (Sigma, cat. T8665) (0.1 mg/ml in 0.05 M sodium acetate, 0.05 M citric acid, H₂O₂ 1/7000), absorbance was measured at 450 nm and corrected by subtraction of absorbance at 540 nm using a spectrophotometer (Berthold, Tristar LB941).

[2] = molecular target: T2, human SCFR ECD (R&D Systems cat. 332-SR/CF) (human, UniProt P10721 26-524); test: ELISA, 300 ng coated receptor per well
T2 construct: extracellular domain; Bought; also called SCFR (c-kit)
Protocol: as §1

[3] = molecular target: T3, PDGFRβ-Fc-6×his (R&D Systems cat. 385-PR/CF) (human, UniProt P09619 33-532, limits assumed); test: ELISA, 300 ng coated receptor per well
T3 construct: extracellular domain; Bought; also called soluble PDGFRβ
T3 sequence (P09619 33-532 limits assumed): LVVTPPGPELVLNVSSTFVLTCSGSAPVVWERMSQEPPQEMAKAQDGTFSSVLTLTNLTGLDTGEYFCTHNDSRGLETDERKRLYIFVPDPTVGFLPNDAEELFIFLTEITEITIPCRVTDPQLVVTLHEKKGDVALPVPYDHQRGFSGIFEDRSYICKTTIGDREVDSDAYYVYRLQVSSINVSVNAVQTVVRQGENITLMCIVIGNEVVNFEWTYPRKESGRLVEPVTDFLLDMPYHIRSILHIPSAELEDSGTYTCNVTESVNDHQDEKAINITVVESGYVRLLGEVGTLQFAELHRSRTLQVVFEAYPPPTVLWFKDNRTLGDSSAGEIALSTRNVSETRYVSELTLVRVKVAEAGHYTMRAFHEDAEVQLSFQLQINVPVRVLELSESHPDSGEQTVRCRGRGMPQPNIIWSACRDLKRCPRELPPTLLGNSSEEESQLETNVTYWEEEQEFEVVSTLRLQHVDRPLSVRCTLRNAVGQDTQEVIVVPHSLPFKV
Protocol: as §1

[4] = molecular target: T4, Flt-3-Fc-6×his (R&D Systems cat. 368-ST/CF) (human, UniProt P36888 27-543, limits assumed); test: ELISA, 300 ng coated receptor per well
T4 construct: extracellular domain; Bought; also called soluble Flt-3
Protocol: as §1

[5] = molecular target: T5, PDGFRα ECD (R&D Systems cat. 322-PR/CF) (UniProt P16234 24-528, limits assumed); test: ELISA, 300 ng coated receptor per well
T5 construct: extracellular domain; Bought; also called soluble PDGFRα
T5 sequence (P16234 24-528 limits assumed): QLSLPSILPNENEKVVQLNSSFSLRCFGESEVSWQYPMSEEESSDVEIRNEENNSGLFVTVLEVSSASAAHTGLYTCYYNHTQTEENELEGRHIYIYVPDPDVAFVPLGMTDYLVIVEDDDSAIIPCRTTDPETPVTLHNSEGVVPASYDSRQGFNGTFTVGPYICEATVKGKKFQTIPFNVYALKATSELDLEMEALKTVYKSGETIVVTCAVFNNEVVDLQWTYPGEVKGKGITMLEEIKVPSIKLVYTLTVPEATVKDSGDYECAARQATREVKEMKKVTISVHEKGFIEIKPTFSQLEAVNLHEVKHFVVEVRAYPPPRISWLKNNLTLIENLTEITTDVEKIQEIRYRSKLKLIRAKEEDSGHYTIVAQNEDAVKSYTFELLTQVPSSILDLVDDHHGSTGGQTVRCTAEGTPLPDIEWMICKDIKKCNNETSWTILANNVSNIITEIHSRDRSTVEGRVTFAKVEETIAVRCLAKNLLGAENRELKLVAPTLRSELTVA
Protocol: as §1

[6] = molecular target: T6, VEGFR1-Fc-6×his (R&D Systems cat. 321-FL-050) (human, UniProt P17948 27-758, limits assumed); test: ELISA, 300 ng coated receptor per well
T6 construct: extracellular domain; Bought; also called soluble VEGFR-1
T6 sequence (P17948 27-758 limits assumed): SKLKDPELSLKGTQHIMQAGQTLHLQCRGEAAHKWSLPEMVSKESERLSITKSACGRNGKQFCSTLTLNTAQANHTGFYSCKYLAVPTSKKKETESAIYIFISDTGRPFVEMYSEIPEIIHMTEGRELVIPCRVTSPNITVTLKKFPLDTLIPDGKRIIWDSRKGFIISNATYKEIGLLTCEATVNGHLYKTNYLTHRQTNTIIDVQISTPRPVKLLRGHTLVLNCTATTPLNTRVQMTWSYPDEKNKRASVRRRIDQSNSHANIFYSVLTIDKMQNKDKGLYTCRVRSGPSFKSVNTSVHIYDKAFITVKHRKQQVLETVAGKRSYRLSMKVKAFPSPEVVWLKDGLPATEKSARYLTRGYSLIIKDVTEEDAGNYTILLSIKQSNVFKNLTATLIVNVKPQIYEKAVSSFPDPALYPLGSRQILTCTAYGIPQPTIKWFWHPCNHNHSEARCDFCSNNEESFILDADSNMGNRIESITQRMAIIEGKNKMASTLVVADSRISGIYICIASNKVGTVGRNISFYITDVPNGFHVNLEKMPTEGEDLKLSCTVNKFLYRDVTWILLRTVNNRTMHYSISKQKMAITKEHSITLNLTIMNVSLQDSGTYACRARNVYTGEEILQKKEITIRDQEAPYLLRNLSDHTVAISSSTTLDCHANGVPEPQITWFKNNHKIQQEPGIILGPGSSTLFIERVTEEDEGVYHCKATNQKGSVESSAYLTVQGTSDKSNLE
Protocol: as §1

[7] = molecular target: T7, human CSF-1R, full length, on cells (human, UniProt P07333 20-972); test: displacement of 1.5 nM ^125I-H27K15 (competitor) on EL4-CSF-1R cells
T7 construct: also called cell-surface CSF-1R; B4-800-5 cells

[8] = molecular target: T7, human CSF-1R, full length, on cells; test: displacement of 1.5 nM ^125I-H27K15 (competitor) on EL4-CSF-1R cells, Cheng-Prusoff
pTG18036 = molecular target: T8, pTG18036; test: ELISA: His-tagged construct captured from CHO supernatant on anti-His tag coated wells; biotinylated antibody; streptavidin-HRP
T8 construct: truncated mutant secreted by CHO cells; also called human D1 and D2 of CSF-1R, Histidine tag
T8 single secreted chain: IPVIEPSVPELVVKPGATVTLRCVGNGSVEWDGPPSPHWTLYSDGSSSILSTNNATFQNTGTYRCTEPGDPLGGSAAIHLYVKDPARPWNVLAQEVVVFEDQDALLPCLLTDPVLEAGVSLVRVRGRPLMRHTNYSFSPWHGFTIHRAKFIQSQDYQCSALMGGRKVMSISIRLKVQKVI
Protocol: (§2) In order to map the mAb binding sites on CSF-1R, truncated mutants of human CSF-1R and chimeras between human and murine D1-D3 CSF-1R fused to Histidine tags were constructed (see FIGS. 19 and 20 for details). These constructs were expressed as secreted proteins using CHO cells. Expression of constructs was checked by immunoblot analysis using an anti-His tag antibody for detection. All constructs were captured on ELISA plate by incubating CHO culture supernatant into wells coated with an Anti-His tag antibody. Antibodies were biotinylated using Biotin-NHS (Sigma ref B3295-10 MG). Biotinylated antibodies were added to each well and binding was detected with streptavidin-HRP.

[9] = molecular target: T9, construct pTG18000 (human and murine D1 subdomains combined, Histidine tag) (Homo sapiens (Human), UniProt P07333 21-298); test: as above
T9 chain: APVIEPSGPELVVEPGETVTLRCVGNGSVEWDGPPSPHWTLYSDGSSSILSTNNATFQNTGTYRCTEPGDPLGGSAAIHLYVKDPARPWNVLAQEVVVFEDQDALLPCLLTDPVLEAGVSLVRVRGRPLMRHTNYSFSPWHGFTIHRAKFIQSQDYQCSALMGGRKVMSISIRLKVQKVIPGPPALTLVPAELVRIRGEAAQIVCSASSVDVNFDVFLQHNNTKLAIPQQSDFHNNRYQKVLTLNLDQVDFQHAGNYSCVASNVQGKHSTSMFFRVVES
Protocol: as §2

pTG17983 = molecular target: T10, pTG17983; test: as above
T10 construct: secreted by CHO cells; also called human D1-D2-D3 of CSF-1R, Histidine tag
T10 single secreted chain: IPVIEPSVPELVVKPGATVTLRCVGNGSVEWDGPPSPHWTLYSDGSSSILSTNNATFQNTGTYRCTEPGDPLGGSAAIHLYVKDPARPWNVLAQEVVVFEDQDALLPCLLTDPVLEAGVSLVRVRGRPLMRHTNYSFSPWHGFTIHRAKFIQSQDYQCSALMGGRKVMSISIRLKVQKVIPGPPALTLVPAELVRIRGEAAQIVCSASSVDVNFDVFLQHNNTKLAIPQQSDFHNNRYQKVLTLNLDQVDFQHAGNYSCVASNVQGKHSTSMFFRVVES
Protocol: as §2

EGFR:Fc = molecular target: T11, EGFR:Fc (human, UniProt P00533 25-645); test: Western blot, native conditions, 100 ng soluble receptor
T11 construct: also called soluble form of the EGFR fused to human IgG1 Fc (R&D Systems); Soluble EGFR; not shown: human IgG1 Fc
Excerpt: A soluble form of the EGFR fused to human IgG₁ Fc (R&D Systems) was used as a negative control.

[10] = molecular target: T12, CSF-1R20-512-Fc (R&D Systems cat. 329-MR) (human, UniProt P07333 20-512); test: ELISA: coated human CSF1 1-444 or PBS; Fc-D1-D5 human CSF-1R 0.125 µg/mL; anti-human IgG-Fc-HRP
T12 construct: Bought; also called CSF-1R1-512:Fc; soluble human CSF-1R; not shown: Fc region of a human IgG1

T1 sequence (P35968 20-764 limits assumed): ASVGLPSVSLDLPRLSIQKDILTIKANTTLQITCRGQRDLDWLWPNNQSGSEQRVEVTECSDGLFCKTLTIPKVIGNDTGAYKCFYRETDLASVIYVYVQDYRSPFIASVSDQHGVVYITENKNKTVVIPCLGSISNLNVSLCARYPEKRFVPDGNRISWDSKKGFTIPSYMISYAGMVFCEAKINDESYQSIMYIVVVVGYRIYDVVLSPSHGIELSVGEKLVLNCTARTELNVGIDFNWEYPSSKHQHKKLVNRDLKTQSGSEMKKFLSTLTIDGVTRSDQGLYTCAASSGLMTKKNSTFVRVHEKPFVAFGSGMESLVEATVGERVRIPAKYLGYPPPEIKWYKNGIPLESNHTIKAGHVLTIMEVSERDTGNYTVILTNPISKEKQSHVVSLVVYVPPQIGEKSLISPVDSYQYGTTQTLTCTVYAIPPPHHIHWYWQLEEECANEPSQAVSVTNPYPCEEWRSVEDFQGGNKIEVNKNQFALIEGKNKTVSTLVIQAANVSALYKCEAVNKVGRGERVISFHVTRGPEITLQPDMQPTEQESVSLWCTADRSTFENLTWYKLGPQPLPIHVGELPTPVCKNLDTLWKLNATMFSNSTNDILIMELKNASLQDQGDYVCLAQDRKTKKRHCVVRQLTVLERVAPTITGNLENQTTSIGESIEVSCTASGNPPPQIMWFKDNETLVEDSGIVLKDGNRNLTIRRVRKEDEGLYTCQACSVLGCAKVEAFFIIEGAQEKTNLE

B1: H19K12 (antibody, V domains shown)
VH: EVQLVESGGGLVQPGGSLKLSCAASGFTFSDAWMDWVRQSPEMGLEWVAEIRSKANNHATFYAESVKGRFTISRDDSKSSVYLQMNSLRAEDTGIYYCTRVKVGFDNWGQGTTLTVSS
VL: DIQMTQSPSSLSASVGDRVTITCRASENIYSNLAWYQQKDGKSPQLLVHAATNLADGVPSRFSGSGSGTQYSLTISSLQPEDFGSYYCQHFWGTPRTFGGGTKLEIKR
notes: Humanized human IgG1/kappa; also called hCXIIG6 variant H19K12
binding result [1]: no binding (tested: 500 ng/ml)
binding result [2]: no binding (tested: 500 ng/ml)
binding result [3]: no binding (tested: 500 ng/ml)
binding result [4]: no binding (tested: 500 ng/ml)
binding result [5]: no binding (tested: 500 ng/ml)
binding result [6]: no binding (tested: 500 ng/ml)
IC50 [7]: 1.28 nM
Ki [8]: 0.754 nM

B2: Chimeric CXIIG6 IgG1 (antibody)
heavy: not shown
light: DIQMTQSPASLSVSVGETVTITCRASENIYSNLAWYQQKQGKSPQLLVHAATNLADGVPSRFSGSGSGTQYSLKINSLQSEDFGSYYCQHFWGTPRTFGGGTKLEIKRTVAAPSVFIFPPSDEQLKSGTASVVCLLNNFYPREAKVQWKVDNALQSGNSQESVTEQDSKDSTYSLSSTLTLSKADYEKHKVYACEVTHQGLSSPVTKSFNRGEC
IC50 [7]: 1.48 nM
Ki [8]: 0.874 nM
binding result (pTG18036): binds
binding result [9]: no binding
binding result (pTG17983): binds

B3: mAb CXIIG6 (antibody, mouse IgG2a, kappa)
heavy: EVKLEESGGGLVQPGGSMKLSCAASGFTFSDAWMDWVRQSPEMGLEWVAEIRSKANNHATFYAESVKGRFTISRDDSKSSVYLQMNSLRPEDTGIYYCTRVKVGFDNWGQGTTLTVSSAKTTAPSVYPLAPVCGDTTGSSVTLGCLVKGYFPEPVTLTWNSGSLSSGVHTFPAVLQSDLYTLSSSVTVTSSTWPSQSITCNVAHPASSTKVDKKIEPRGPTIKPCPPCKCPAPNLLGGPSVFIFPPKIKDVLMISLSPIVTCVVVDVSEDDPDVQISWFVNNVEVHTAQTQTHREDYNSTLRVVSALPIQHQDWMSGKEFKCKVNNKDLPAPIERTISKPKGSVRAPQVYVLPPPEEEMTKKQVTLTCMVTDFMPEDIYVEWTNNGKTELNYKNTEPVLDSDGSYFMYSKLRVEKKNWVERNSYSCSVVHEGLHNHHTTKSFSRTPGK
light: DIQMTQSPASLSVSVGETVTITCRASENIYSNLAWYQQKQGKSPQLLVHAATNLADGVPSRFSGSGSGTQYSLKINSLQSEDFGSYYCQHFWGTPRTFGGGTKLEIKRADAAPTVSIFPPSSEQLTSGGASVVCFLNNFYPKDINVKWKIDGSERQNGVLNSWTDQDSKDSTYSMSSTLTLTKDEYERHNSYTCEATHKTSTSPIVKSFNRNEC
notes: Mouse IgG2a; Used as hybridoma supernatant or as purified recombinant antibody; also called CXIIG6 hybridoma supernatant; CXIIG6 SN
binding result (EGFR:Fc): no binding

B4: human CSF1 1-444 (Geneart) (ligand)
chain: EEVSEYCSHMIGSGHLQSLQRLIDSQMETSCQITFEFVDQEQLKDPVCYLKKAFLLVQDIMEDTMRFRDNTPNAIAIVQLQELSLRLKSCFTKDYEEHDKACVRTFYETPLQLLEKVKNVFNETKNLLDKDWNIFSKNCNNSFAECSSQDVVTKPDCNCLYPKAIPSSDPASVSPHQPLAPSMAPVAGLTWEDSEGTEGSSLLPGEQPLHTVDPGSAKQAPPRSTCQSFEPPETPVVKDSTIGGSPQPRPSVGAFNPGMEDILDSAMGTNWVPEEASGEASEIPVPQGTELSPSRPGGGSMQTEPARPSNFLSASSPLPASAKGQQPADVTGTALPRVGPVRPTGQDWNHTPQKTDHPSALLRDPPEPGSPRISSLRPQGLSNPSTLSAQPQLSRSHSSGSVLPLGELEGRR
modifications: biotinylated with Biotin-NHS in the assay of
notes: also called biotinylated CSF-1
binding result [10]: binds
